Measured values taken from the DeepSol protein solubility set.

Assay: soluble on expression in E. coli; label from the status in PepcDB or PDB records

| Sequence | soluble on expression in E. coli |
| --- | --- |
| MQKKYYEDSHQDSYLLGVKEKDEVLLTALMRKIKNHTGDVYEIMGGPLVDFENENNNQIIAFFLKELHKYLKKQHAYYLRIVPNEKTQRVENNGKVVNYDLKNYSSLYFAEGFIYRSFEQVGYGFATPHYEYQKRIEGLNKKTLFQSYSKKTQYSIKKTYEFGITTRNISYDELEMFHENTTKTAKRLGFYDKELSYYQSVYRTFGDNAKFMIAEINLSDYIGHFQEIIRNLKDKIDQMILIDSKREKPTKTRQIKELRSQVEQHEKRIVQAKKLIEQYGKKINLAGALFFIQPQEVSYMFSYTNAEFKNFYGPYRTQADMLEFALKEKVPVYNFYGVSGDRSGHDGVYEFKKGFQGYMVDNMGAFILPINKFRYQFLQTIKKIIRRR | not soluble |
| EIAPLFTIENTVEEVEGMRPYTPLELAGRDIYVREGCYACHSQMIRTLRSDVERYGHYSLAAESMYDHPFQWGSKRTGPDLARIGGKYSDDWHVAHLEDPRALVPGSVMPGYAFLSATRLDTGHLPAALEALRRAGVPYTDAQIATAEQAAGWQADAEQAYESELQELFGDNVQLRDFDGRPGELTEMDALVAYLQVLGT | not soluble |
| MSLNSIKDVDLSEITAGKKYWNVERPVEEEVMYFLLIDRFHDGKERISIPSTTGFGNTDQLQARCGGTIQGVIKNLKYISALGFTSIWINPFLQNNPETYHGYSIENFLEVDAQWGTKEDIVELVAQAHKLHIKVFFDIVLNHTGNNWSYVKENPRYNKGKQYAVKAWRYPDRPIPAELRNLNLYGRKGGIVKWEETPETWDGDIFELKDLIQDDSEIGHATLEILIAVYSYWFAVTDCDGFRIDAAKHIPPKWLNTFVDAMKALTASVHKTSFFIFAEIISNQSYISKYHTIDGYLDFDFHFSFVPNMYGEKKRKSAIQSQPRPVDKVPIRFLDNHDQVGQMPKHRIAYRMKEKALCNLLRAFLCMPGIPCIYYGTEQGLKGKGILDGSIRECLFNPDGKEDILNLDSPYARVIKEGIHLRKKLNLYTGDFQSCEIMAAKSHRCIALQVNGLASSKLIVYNLGPHNEVVSIKLSSPLTRTNKLVVYLYSNGDADNDDKTVVNDILHNITMHPYGFKVLELLNHQESVNEGHHHHHH | soluble |
| SAAPVDLELKKAFTELQAKVIDTQQKVKLADIQIEQLNRTKKHAHLTDTEIMTLVDETNMYEGVGRMFILQSKEAIHSQLLEKQKIAEEKIKELEQKKSYLERSVKEAEDNIREMLMARRAQ | soluble |
| MNFIYPAVIAAVQEGEKAWGTTHPNPPVGAVVLSSNGSIVGRGHTQPPGGSHAEIMALRQAGENTKGGTLVVTLEPCNHWGRTGPCSHAISESGIEHVVYLMQDTGSLEKGGAEYLRRQGLKVTFLGLSVAALIPWQASKDRGWPYVVGKTAHTLDGFVAAEDHSSKWITGSASRDYANRQRRHFDAIIVGTGTVKADNPALTARKDDGTLLPHQPLKVVIGTSKISEGTQLARSGFVQFSTIEEALVQLWDRGVRYVLVEGGPHLLHGFLTSGNLDQLHSYSAPMLLTRGVSLLQEEEKKSAESANTTIASALRGSPQSISMLGDDILQVINI | not soluble |
| MGSDKIHHHHHHMIIDEISLFILDMDGTLTLEPSSWDYVHRRLGINNHSVTRLYRNRYINYYCFFQSDIKAWLHKYPNLKKEKVVEFLREVPIRHGADELINVLRKNGIRTAVISGGISWLFDIISERSKIDYNFSNEIFTDEYGYIVPEGKVRVIPEEKDLVVRKIQEELGIGKDQTASVGDEMENDRIHRYSKYRFIISKKARDNLIPIPSGDLEDLLRILE | not soluble |
| MGSDKIHHHHHHMAYPPTGGDRKTNLTTILRKSSKNLMSKKSDSQFQNLFTSAKSSNWDERLGQIAYRFNREYQRETFELPTEVQAMPIFREWIGGSFSGRIASPFWEIAQPQKNQHCLDIGCGISFLIYPWRDWQAFFHGQEISNVARDTLNSRGPQLNSKLFKGVELGAAHQLNYSPEQFDLAIATGFSCYFPLEYWNAVLAEVKRVLKPGGHFVFDILNPEQPLAEDWAVLETYLGAEVFLEPVAGWEKAIKAAGAKIVTQKSGELFQMYKVRF | not soluble |
| MAMKQWIAALLLMLIPGVQAAKPQKVTLMVDDVPVAQVLQALAEQEKLNLVVSPDVSGTVSLHLTDVPWKQALQTVVKSAGLITRQEGNILSVHSIAWQNDNIARQEAEQARAQANLPLENRSITLQYADAGELAKAGEKLLSAKGSMTVDKRTNRLLLRDNKTALSALEQWVAQMDLPVGQVELSAHIVTINEKSLRELGVKWTLADAQHAGGVGQVTTLGSDLSVATATTHVGFNIGRINGRLLDLELSALEQKQQLDIIASPRLLASHLQPASIKQESEIPYQVSSGESGATSVEFKEAVLGMEVTPTVLQKGRIRLKLHISQNVPGQVLQQADGEVLAIDKQEIETQVEVKSGETLALGGIFTRKNKSGQDSVPLLGDIPWFGQLFRHDGKEDERRELVVFITPRLVSSELEHHHHHH | soluble |
| MAHHHHHHMNNSLLGSLFAKRTKEPRDLDAAEMPQLRTGRSRASSESSTTSARSQRDGKKKKQQRRHPGKRRDAQDSDSGDEGVRQHSTPLTSPAPHPRASSVGSEFSDIEENPRPRNQRRSSGKVLRSSGTVAGAEKAKADERPPMAHSTPEVLPGADNLATNPLGEAGAGGEGAAGGQRHLPPMSQSAPMTSGRGSAAETVAVLRKEGSIEASQQQASTLTAGQLCGVAANSTVSFSGDDAAVLGASLNNTCSAATTISHHPTQPLAPAPGSSSGSPEDHKGSPPRACSSAEEGKKCDNRDSNTRRAVSGKDGEEMTHVDTEKQQPHDRSGDTPDRDVGASGKAWEGQRDATSAVEKDTHPLLDTASLRHTLDSFGSRPSSKLRRRSLGIGGSSKCVPAMLDRSRDGDGTSMTPSDGDEILKGLSFFNAASGEFVLTNHDIHSLEAFLFGTRALVVHINDLQKALLEMQHATDLARLL | not soluble |
| MSLATVDKPLPPTDWKVVDNSKTYLKESAMRSFAFDDTLCTLAGKTGQSFIRFWVHENTIVLGTQDTRLPFIREAIEFIEQEGYRAVVRNSGGLAVCLDAGILNLSLVFPGEATFSIDEGYERMVTLVKAIFKEEQIEAGEIAGSYCPGSYDLSIDGKKFAGISQRRIRGGIAVQIYLCVQGSGSARAAFIRSVYNKAVQTSKPAFSYPDIKPEVMASLSELTNVPYSIETIIGRAKTAILESGGQLESAVLSPEEELLYETQLERMIDRHNRCLREGHHHHHH | soluble |
| MGSDKIHHHHHHMQGSRFAFGPFVLDPGAGTLLRNDDPVAVGYRGLKLLAALVGRPGEILEKAELMDAAWPGTAVEEGNLTVQIAQLRKLLGPPADGGEWISTVPRVGYRFTGAIEQLDRAKRKPLPLPDKPSIAVLPFVNLSNDPEQEAFADGLTEDLITDLSRAPGLFVIARNSTFAYKGKAMDVRAIAEELGVRYLLEGSARRAAGRVRINAQLVDAKSGEHLWAERFDRGLDDIFAVQDEATAKIVEALLGRLRAPPPRNRPTNLEAYDLCVRARKLIEESPQTAREAHLLLTRAVSLDPEYAEAHRWLAMNHWMGWVHWGEPVDPNRRIALELARKAVAIDPNDAGCRWVLGNLLAYEHSFEESEAEFAKAFELDPNEADAWATLSDIAVLAGRVEEGLEHIRKAFRLNPYPASWYYLTLGEAQYAARDYEAAVETLRREETYRTSSRRFLAASLAQLGRLDEARAEVEMFLIGNPHFTTSYWVWTEPFRDDAMRDHFVDGFRKAGLPD | not soluble |
| TLTIYPAAKPNGLAVVACPGGGYIRLAMNHEGHDMADWFNAQGITYAVLKYRMPNGHHDVPLSDAHQAIRLMREHANEWHIQKVGIMGASAGGHLASTAATHYTAGTRPDFQILFYPVISMDLSNCHKGSRDNLLGKSPSEELVRLYSNELQVTGDTPPAFIMHSSDDGAVPVSNSVSYYLALVKNKVPASLHTYPIGGHGWGFRDSFTYKRQWTGELEKWLREIL | not soluble |
| MKELRVKNQYEKHKEVEAAQGVKILGKDLEKTLAGLPLLVAYKDDEIPVLKDELIHELKQTLNAIKLEEKGVYVQASTLGSLEALLEFLKTSEVPYAGINIGPVHKKDVMKASVMLEHDPQYAVILAFDVRIERDAQEMADSLGVRIFSAEIIYHLFDAFTKYRQDYKKQKQEEFKHIAVFPCKMKILPQYIFNSRDPIVIGVTVEAGQVKQGTPMCVPSKNFVDIGIVTSIEINHKQVDVAKKGQEVCVKIEPIPGESPKMFGRHFEATDILVSKISRQSIDALKDWFRDEMQKSDWQLIVELKKVFEII | soluble |
| MGSDKIHHHHHHMKKTPKLSVQLWSVKDAINQDFNGTLKTLSNMGFDGVEFAGELGSYANDAKALKLFLDSIDLKASGAHVSFEQLDQDNFQKTVDFYHQLQVDTLIIGLDDRSWHPQGIEEVVKLLNQLDTKLDPYNIKTGFHNHEHEFDNFKGTTYWDYLAMNTKDSVVLQQDVGWTTYAGKDAVEYVYKYPNRSFTTHYRVCIPEGVKGKQPIIGRDTIDWLRLLKANINVGGTKWIVVEQDVYPNGMSSLAAVALSKNGLEQYIDKL | not soluble |
| MGSDKIHHHHHHMNTKVMTAIPFTIDRDWLFTHLHIKPGKPYVEDVENMIEQALTIGKPKAAYRLAYIESKGEDFVVVDGFKFTSRVLRVNLAETFKVVPYVITCGEELERWAKTFHHMFESYCADGIMEAVMHSARVAFFSQIAEEYNLGHAVNMNPGSLEDWPLKEQAPLFQLLGDVKSLIGVELKESFLMSPIKTVSGFRFSKEGSYENCQLCPREKCPGRRAPYEQNLYAEKYQLK | not soluble |
| DALEVAEKVTAVIFDKTGTLTKLKESAKPAVQELKRMGIKVGMITGDNWRSAEAISRELNLDLVIAEVLPHQKSEEVKKLQAKEVVAFVGDGINDAPALAQADLGIAVGSGDIVLIRDDLRDVVAAIQ | soluble |
| MKANANAFYAINGNSVIDFKESSKAKDVCEFLGRIKEENEYDPIVVLDNSKTHHADITIKKAKQLDITLVFLPPYSPDLNPIEFIWKSVRKEILKEFIESVTQLRDLIKNEYMKLAKSKSFANNWMKIFDEQIKSVMNSLEHHHHHH | not soluble |
| MIIVHLCGGLGNQMFQYAAGLAAAHRIGSEVKFDTHWFDATCLHQGLELRRVFGLELPEPSSKDLRKVLGACVHPAVRRLLAGHFLHGLRPKSLVIQPHFHYWTGFEHLPDNVYLEGYWQSERYFSNIADIIRQQFRFVEPLDPHNAALMDEMQSGVSVSLHIRRGDYFNNPQMRRVHGVDLSEYYPAAVATMIEKTNAERFYVFSDDPQWVLEHLKLPVSYTVVDHNRGAASYRDMQLMSACRHHIIANSTFSWWGAWLNPRPDKVVIAPRHWFNVDVFDTRDLYCPGWIVLLEHHHHHH | not soluble |
| MGSDKIHHHHHHMKVDLCARKQADAQASVGIIQREGGTARAYQCDIANPDSVRDFSVQLLEDSTPVDILVLSAAQWLEGALGEEDTDTDIVSTINSGLTGSILLTKTLLPSLRRSQSADILAMISVCGVPQFHDSIAHPAFFAAKHGLSGFSQNLAHHVAQENIRVTGFYPPDFEVTGFDDYPASGEKMGEHLLNARSIWETMRFVLTQPRSCHINAIHFQGPTRTDIGPY | not soluble |
| MSLNCKQRRYMKILIVDDNEQYRKLLSAIFVDRGWEAIDAPEGNKGMELLREHIPDVILSDIMMPRMDGFQFLRALRTSAFGDIIFIFYTSTYTKASHRDFALSLGADAYIAKPLDPEDIVQALMDILDRKELREGHHHHHH | not soluble |
| MEFKDFPLKPEILEALHGRGLTTPTPIQAAALPLALEGKDLIGQARTGTGKTLAFALPIAERLAPSQERGRKPRALVLTPTRELALQVASELTAVAPHLKVVAVYGGTGYGKQKEALLRGADAVVATPGRALDYLRQGVLDLSRVEVAVLDEADEMLSMGFEEEVEALLSATPPSRQTLLFSATLPSWAKRLAERYMKNPVLINVIK | soluble |
